Measured values published in IntAct's records for PubMed 22153509.

B1: Interleukin-5 receptor subunit alpha (Homo sapiens), Q01344-2 (parent)
chain: MIIVAHVLLILLGATEILQADLLPDEKISLLPPVNFTIKVTGLAQVLLQWKPNPDQEQRNVNLEYQVKINAPKEDDYETRITESKCVTILHKGFSASVRTILQNDHSLLASSWASAELHAPPGSPGTSIVNLTCTTNTTEDNYSRLRSYQVSLHCTWLVGTDAPEDTQYFLYYRYGSWTEECQEYSKDTLGRNIACWFPRTFILSKGRDWLAVLVNGSSKHSAIRPFDQLFALHAIDQINPPLNVTAEIEGTRLSIQWEKPVSAFPIHCFDYEVKIHNTRNGYLQIEKLMTNAFISIIDDLSKYDVQVRAAVSSMCREAGLWSEWSQPIYVGFSR

Variants of: B1
Settings: with il5_human IL5, P05113
il5_human IL5, P05113, sequence (P05113 whole entry): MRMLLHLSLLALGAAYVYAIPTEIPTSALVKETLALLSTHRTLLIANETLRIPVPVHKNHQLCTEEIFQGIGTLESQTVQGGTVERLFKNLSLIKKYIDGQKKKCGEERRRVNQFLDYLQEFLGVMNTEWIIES

effect of a mutation on the interaction	Variant
disrupting interaction	L43A
decreasing interaction	I89A
disrupting interaction	E78P
decreasing interaction	M315A
decreasing interaction	D75E
decreasing interaction	I203A
decreasing interaction	Y77A
decreasing interaction	R208K
decreasing interaction	W178A
decreasing interaction	R80A
disrupting interaction	D228A
decreasing interaction	S84A
